Results as given in the supplement of paper PMC9170038.

What was measured:
[1] = test system: MS2 coat protein; assay: apparent KD of MS2 coat protein, switch OFF state (with FMN for OFF switches, without FMN for ON switches); designed switch direction (-1 OFF switch, 1 ON switch): 1; higher = weaker reporter binding; conditions: FMN input: 0 or 200 uM; Eterna round: R93 (includes R88 designs)
Procedure, shortened: (§1)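 Designed RNA switches were transcribed on-chip from Illumina sequencing clusters. SNAP-549-labelled MS2 coat protein was titrated onto them in twofold steps from 0.7 or 1.5 nM to 3 µM in 100 mM Tris-HCl pH 7.5, 80 mM KCl, 4 mM MgCl2, either without or with constant ligand. Apparent KD reflects the per-design median of normalised cluster binding-curve fits.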

[2] = test system: MS2 coat protein; assay: apparent KD of MS2 coat protein, switch ON state; designed switch direction (-1 OFF switch, 1 ON switch): 1; higher = weaker reporter binding; conditions: FMN input: 0 or 200 uM; Eterna round: R93 (includes R88 designs)
Procedure, shortened: as §1

Row | Sequence | apparent KD of MS2 coat protein [1] [nM] | apparent KD of MS2 coat protein [2] [nM]
1 | AACAAUCUAUCUGAGGAUAUGUGUCGAAAGACAUGAGGAUCACCCAUGUGAAAACAUGAAAAAUCACAGAAGGCAGAUAGAUUGA [SS2: 1143] | 146 | 45.8
2 | AACAGACAUGAGGAUCACCCAUGUAGAAUUAUGGGAGGAUAUACAAAGACGAGAGUCAGAGUAGAAGGCCUAGGAG [salish99-ss1-162] | 44.3 | 22.1
3 | AACUACAUUAUGAAGGAUAUCCGCGUCUAGACAUGAGGAUCACCCAUGUAUACUUGGAUCAUGCAGGAGAAGGUCAAGGGUGAUU [JR_SS002_Sub1209] | 122 | 178
4 | AAGAAACAUGAGGAUCACCCAUGUAAACUCGAGAGAGGAUAUCGUACAUGGAAGAUUCAACGAGAAGGCUCUAGAG [Same State 1.1a (Pariah 3, G boost at 31, GC 76/28)] | 41.5 | 23.8
5 | AAGAAACAUGAGGAUCACCCAUGUAAGAAUAUGGGAGGAUAUACAAGGACAAGAGUCAAGGUAGAAGGCCUAAGAA [Mat - Same State 1 - Meechl mod - D143] | 118 | 33
6 | AAGAAACAUGAGGAUCACCCAUGUACCCAAAAGCGAGGAUAUGGGAAAGAAAGAAAGAAACCAGAAGGCGCAUGAA [Darius II] | 35.5 | 20
7 | AAGAAACAUGAGGAUCACCCAUGUGAGAUAAACACAGGAUAUGCGAAAAGAAACAAAGAAGCAGAAGGGUGAAGAA [Mat - Same State 1 - Tesla mod - 55] | 126 | 34.9
8 | AAGACACAUGAGGAUCACCCAUGUCAAGAGAGAUGAGGAUAUCUGAGUUAGUUAAGUUAAGGAGAAGGCAUGAAAA [LROPPY Same State 1 - v01_deltaG=3.81] | 59.4 | 31
9 | AAUAAACAUGAGGAUCACCCAUGUACCGACCACUAAGGAUAUGGGCGAAUAACAGCUCGGCCAGAAGGUAGAGGUG [Gebimarabi] | 62.5 | 46.7
10 | AAUAAACAUGAGGAUCACCCAUGUCUUUUACAUCAAGGAUAUGGGAUCGGAAAUCCGACACCAGAAGGUGAGUAGA [Userra] | 300 | 157
11 | AAUAAUUAUAUGGAGGAUAUCCGUAAUAAGACAUGAGGAUCACCCAUGUAAUAAGGGUAAAUAAAGGAGAAGGCCAAGGGUGAAA [JR_SS002_Sub003] | 184 | 98.4
12 | AAUACACAUAGUCAGGAUAUCAAAACUAAGACAUGAGGAUCACCCAUGUAAUAAGUAAAAGUAAAUGAGAAGGGACAGGGUGACC [JR_SS002_Sub404] | 63.9 | 130
13 | AAUAUACAUGAGGAUCACCCAUGUUUUAAUAACUGAGGAUAUACGGGUGAAAACAGCAUAGUAGAAGGCAGAAAAA [SameState1 Malc#5] | 89.1 | 42.2
14 | AAUAUACAUGAGGAUCACCCAUGUUUUAAUAGUUGAGGAUAUACGGGUGAAAAUAGCAUAGUAGAAGGCGAGUGUA [SameState1 Malc#12] | 106 | 146
15 | AAUAUAUUAAGUGAGGAUAUCGAAGAAAAAACAUGAGGAUCACCCAUGUGGGAAACCUGGUCGGGUGAGAAGGCACUUAAUAUAU [Samwise Clockwise 27 - Jieux - Same State 2] | 85.4 | 45.5
16 | AAUCCAAAUAGUCAGGAUAUCAAAAAUAAGACAUGAGGAUCACCCAUGUACUUAGUAAAAGUAAAUGAGAAGGGACAGGGUGAAA [JR_SS002_Sub403] | 29.4 | 21.4
17 | AAUCCAACUAGUCAGGAUAUCAGGCGUAAGACAUGAGGAUCACCCAUGUCCUAAGAACAAGUAACUGAGAAGGGACAGGGCGACC [JR_SS002_Sub411] | 62 | 57.6
18 | ACAAACAAAAAAGAGGAUAUCCUAAAUAAAACAUGAGGAUCACCCAUGUAAAAAAUAAUAAAAUGGGAGAAGGCUUACAACAAAC [SS2 M 24] | 21 | 15.6
